Assay results as given in article PMC12265162, “A single residue change only differing by an atomic group can drive imprinting to influenza” (Research Square, 2025).

B1: NI01056_d30_604 Fab (Fab, V domains shown)
VH: QVQLQESGPGLVKPSETLSLTCTVSGGSISNYYWTWIRQPPGKGLEWIGYMYDSGNTKYNSSLRSRLTMSLDTSKNQFSLKMRSVTAADTAVYYCARGGGVRNLLGLRFVSDYMDVWGKGTTVTVSS
VL: DIQMTQSPSTLSASVGDRVTITCRASQSISSWLAWYQQKPGKAPHLLIYQASSLETGVPSRFSGSGSGTEFTLTISSLQPDDFATYYCQQYNTYSSTFGQGTQLQIK
notes: also called mAb NI01056_d30_604; source: Expi293F, co-transfected, Fab purified from supernatant (Ni-NTA agarose)
B2: NI06063_d30_103 mAb (human IgG1) (antibody, V domains shown)
VH: QVHLVESGGGVVQPGRSLRLSCAASGFTFSNYGMHWVRQAPGKGLEWVAFISYDGSNEYYADSVKGRFTISRDYSKYTLYLQMNSLRAEDTAVYYCAKDGQWLVRGAFDFWGQGTMVTVSS
VL: QSALTQPASVSGSPGQSITISCSGTGSDVGSSHLVSWYQHHPGKAPKLMIFEVSKRPLGVSNRFSGSKSGNTASLTISGLQTEDEADYYCCSYAGGRGVFGGGTKLTVL
notes: IgG1; also called mAb d30_103
B3: NI04359_d30_245 Fab (Fab, V domains shown)
VH: EVQLVESGGGLFKPGGSLRLSCAASGFTFRNAWMSWVRQAPGKGLEWVGRIKSKADGGTTDYAASVKGRFTISRDDSKNTLYLHMNSLKTEDTAVYYCTTPPEIAVVAAAMRDYYYGLDVWGPGTTVTVSS
VL: SYELTQPVSVSVALGQTARITCGGNNIGSKSLHWYQQKPGQAPVLVIYRDNNRPSGIPERFSGSNSGNTATLTISRAQAGDEADYYCQVWDSSTYVVFGGGTRLTVL
notes: also called mAb NI04359_d30_245; source: Expi293F, co-transfected, Fab purified from supernatant (Ni-NTA agarose)

What was measured:
Details in all cases: both partners purified
[1] = target: T1, H1N1 A/Solomon Islands/3/2006 HA protein (Influenza A virus A/Solomon …, strain); assay: cryo-EM structure
T1 construct: source: purified

[2] = target: A/USSR/90/1977 H1 hemagglutinin, recombinant (Influenza A virus A/USSR/90/1977 (H1N1), UniProt P03453, strain, biotin on the AviTag); assay: ELISA
[3] = target: A/Brisbane/59/2007 H1 hemagglutinin, recombinant (Influenza A virus A/Brisbane/59/2007 …, UniProt D5F1Q8, strain, biotin on the AviTag); assay: ELISA
[4] = target: A/New Caledonia/20/1999 (NC99) H1 hemagglutinin, recombinant (Influenza A virus A/New …, UniProt Q6WG00, strain, biotin on the AviTag); assay: ELISA

| Binder | binding result [1] | binding result [2] | binding result [3] | binding result [4] |
| --- | --- | --- | --- | --- |
| B1 | binds |  |  |  |
| B2 |  | no binding | no binding | no binding |
| B3 | binds |  |  |  |
